# B1: GpH7-A5/GpH7-B3 variant S298_06M/GpL16-k0 (antibody, human IgG1, kappa)
# heavy 1: not shown
# heavy 2: not shown
# light: DIVMTQSPLSLPVTPGEPASISCQASESLVHSNRNTYLHWYLQKPGQSPQLLIYKVSNRFSGVPDRFSGSGSGTDFTLKISRVEAEDVGVYYCSQNTHVPPTFGQGTKVEIERTVAAPSVFIFPPSDEQLKSGTASVVCLLNNFYPREAKVQWKVDNALQSGNSQESVTEQDSKDSTYSLSSTLTLSKADYEKHKVYACEVTHQGLSSPVTKSFNRGEC
# notes: also called He Ab S298_06M
# B2: GpH7-A5/GpH7-B3 variant S324_16H/GpL16-k0 (antibody, human IgG1, kappa)
# heavy 1: not shown
# heavy 2: not shown
# light: B1 light
# notes: also called He Ab S324_16H
# B3: GpH7-A5/GpH7-B3 variant S298_10E/GpL16-k0 (antibody, human IgG1, kappa)
# heavy 1: not shown
# heavy 2: not shown
# light: B1 light
# notes: also called He Ab S298_10E
# B4: GpH7-A5/GpH7-B3 variant S298_16H/GpL16-k0 (antibody, human IgG1, kappa)
# heavy 1: not shown
# heavy 2: not shown
# light: B1 light
# notes: also called He Ab S298_16H
# B5: GpH7-A5/GpH7-B3 variant S337_01G/GpL16-k0 (antibody, human IgG1, kappa)
# heavy 1: not shown
# heavy 2: not shown
# light: B1 light
# notes: also called He Ab S337_01G
# B6: GpH7-A5/GpH7-B3 variant S337_12R/GpL16-k0 (antibody, human IgG1, kappa)
# heavy 1: not shown
# heavy 2: not shown
# light: B1 light
# notes: also called He Ab S337_12R
# B7: GpH7-A5/GpH7-B3 variant S337_03V/GpL16-k0 (antibody, human IgG1, kappa)
# heavy 1: not shown
# heavy 2: not shown
# light: B1 light
# notes: also called He Ab S337_03V
# B8: GpH7-A5/GpH7-B3 variant S298_14T/GpL16-k0 (antibody, human IgG1, kappa)
# heavy 1: not shown
# heavy 2: not shown
# light: B1 light
# notes: also called He Ab S298_14T
# B9: GpH7-A5/GpH7-B3 variant T335_07I/GpL16-k0 (antibody, human IgG1, kappa)
# heavy 1: not shown
# heavy 2: not shown
# light: B1 light
# notes: also called He Ab T335_07I
# B10: GpH7-A5/GpH7-B3 variant T335_09D/GpL16-k0 (antibody, human IgG1, kappa)
# heavy 1: not shown
# heavy 2: not shown
# light: B1 light
# notes: also called He Ab T335_09D
# B11: GpH7-A5/GpH7-B3 variant S324_08L/GpL16-k0 (antibody, human IgG1, kappa)
# heavy 1: not shown
# heavy 2: not shown
# light: B1 light
# notes: also called He Ab S324_08L
# B12: GpH7-A5/GpH7-B3 variant S298_15Y/GpL16-k0 (antibody, human IgG1, kappa)
# heavy 1: not shown
# heavy 2: not shown
# light: B1 light
# notes: also called He Ab S298_15Y
# B13: GpH7-A5/GpH7-B3 variant S324_03V/GpL16-k0 (antibody, human IgG1, kappa)
# heavy 1: not shown
# heavy 2: not shown
# light: B1 light
# notes: also called He Ab S324_03V
# B14: GpH7-A5/GpH7-B3 variant T335_08L/GpL16-k0 (antibody, human IgG1, kappa)
# heavy 1: not shown
# heavy 2: not shown
# light: B1 light
# notes: also called He Ab T335_08L
# B15: GpH7-A5/GpH7-B3 variant S298_20W/GpL16-k0 (antibody, human IgG1, kappa)
# heavy 1: not shown
# heavy 2: not shown
# light: B1 light
# notes: also called He Ab S298_20W
# B16: GpH7-A5/GpH7-B3 variant S324_15Y/GpL16-k0 (antibody, human IgG1, kappa)
# heavy 1: not shown
# heavy 2: not shown
# light: B1 light
# notes: also called He Ab S324_15Y
# B17: GpH7-A5/GpH7-B3 variant S337_07I/GpL16-k0 (antibody, human IgG1, kappa)
# heavy 1: not shown
# heavy 2: not shown
# light: B1 light
# notes: also called He Ab S337_07I
# B18: GpH7-A5/GpH7-B3 variant S298_07I/GpL16-k0 (antibody, human IgG1, kappa)
# heavy 1: not shown
# heavy 2: not shown
# light: B1 light
# notes: also called He Ab S298_07I
# B19: GpH7-A5/GpH7-B3 variant T335_12R/GpL16-k0 (antibody, human IgG1, kappa)
# heavy 1: not shown
# heavy 2: not shown
# light: B1 light
# notes: also called He Ab T335_12R
# B20: GpH7-A5/GpH7-B3 variant T335_05P/GpL16-k0 (antibody, human IgG1, kappa)
# heavy 1: not shown
# heavy 2: not shown
# light: B1 light
# notes: also called He Ab T335_05P
# B21: GpH7-A5/GpH7-B3 variant S337_04F/GpL16-k0 (antibody, human IgG1, kappa)
# heavy 1: not shown
# heavy 2: not shown
# light: B1 light
# notes: also called He Ab S337_04F
# B22: GpH7-A5/GpH7-B3 variant S337_10E/GpL16-k0 (antibody, human IgG1, kappa)
# heavy 1: not shown
# heavy 2: not shown
# light: B1 light
# notes: also called He Ab S337_10E
# B23: GpH7-A5/GpH7-B3 variant S324_14T/GpL16-k0 (antibody, human IgG1, kappa)
# heavy 1: not shown
# heavy 2: not shown
# light: B1 light
# notes: also called He Ab S324_14T
# B24: GpH7-A5/GpH7-B3 variant S298_19Q/GpL16-k0 (antibody, human IgG1, kappa)
# heavy 1: not shown
# heavy 2: not shown
# light: B1 light
# notes: also called He Ab S298_19Q
# B25: GpH7-A5/GpH7-B3 variant T335_11K/GpL16-k0 (antibody, human IgG1, kappa)
# heavy 1: not shown
# heavy 2: not shown
# light: B1 light
# notes: also called He Ab T335_11K
# B26: GpH7-A5/GpH7-B3 variant S324_18N/GpL16-k0 (antibody, human IgG1, kappa)
# heavy 1: not shown
# heavy 2: not shown
# light: B1 light
# notes: also called He Ab S324_18N
# B27: GpH7-A5/GpH7-B3 variant S324_20W/GpL16-k0 (antibody, human IgG1, kappa)
# heavy 1: not shown
# heavy 2: not shown
# light: B1 light
# notes: also called He Ab S324_20W
# B28: GpH7-A5/GpH7-B3 variant S337_08L/GpL16-k0 (antibody, human IgG1, kappa)
# heavy 1: not shown
# heavy 2: not shown
# light: B1 light
# notes: also called He Ab S337_08L
# B29: GpH7-A5/GpH7-B3 variant S324_19Q/GpL16-k0 (antibody, human IgG1, kappa)
# heavy 1: not shown
# heavy 2: not shown
# light: B1 light
# notes: also called He Ab S324_19Q
# B30: GpH7-A5/GpH7-B3 variant S337_02A/GpL16-k0 (antibody, human IgG1, kappa)
# heavy 1: not shown
# heavy 2: not shown
# light: B1 light
# notes: also called He Ab S337_02A
# B31: GpH7-A5/GpH7-B3 variant T335_10E/GpL16-k0 (antibody, human IgG1, kappa)
# heavy 1: not shown
# heavy 2: not shown
# light: B1 light
# notes: also called He Ab T335_10E
# B32: GpH7-A5/GpH7-B3 variant S337_15Y/GpL16-k0 (antibody, human IgG1, kappa)
# heavy 1: not shown
# heavy 2: not shown
# light: B1 light
# notes: also called He Ab S337_15Y
# B33: GpH7-A5/GpH7-B3 variant S337_09D/GpL16-k0 (antibody, human IgG1, kappa)
# heavy 1: not shown
# heavy 2: not shown
# light: B1 light
# notes: also called He Ab S337_09D
# B34: GpH7-A5/GpH7-B3 variant S298_08L/GpL16-k0 (antibody, human IgG1, kappa)
# heavy 1: not shown
# heavy 2: not shown
# light: B1 light
# notes: also called He Ab S298_08L
# B35: GpH7-A5/GpH7-B3 variant S298_18N/GpL16-k0 (antibody, human IgG1, kappa)
# heavy 1: not shown
# heavy 2: not shown
# light: B1 light
# notes: also called He Ab S298_18N
# B36: GpH7-A5/GpH7-B3 variant S324_12R/GpL16-k0 (antibody, human IgG1, kappa)
# heavy 1: not shown
# heavy 2: not shown
# light: B1 light
# notes: also called He Ab S324_12R
# B37: GpH7-A5/GpH7-B3 variant S337_20W/GpL16-k0 (antibody, human IgG1, kappa)
# heavy 1: not shown
# heavy 2: not shown
# light: B1 light
# notes: also called He Ab S337_20W
# B38: GpH7-A5/GpH7-B3 variant T335_04F/GpL16-k0 (antibody, human IgG1, kappa)
# heavy 1: not shown
# heavy 2: not shown
# light: B1 light
# notes: also called He Ab T335_04F
# B39: GpH7-A5/GpH7-B3 variant S298_12R/GpL16-k0 (antibody, human IgG1, kappa)
# heavy 1: not shown
# heavy 2: not shown
# light: B1 light
# notes: also called He Ab S298_12R
# B40: GpH7-A5/GpH7-B3 variant S324_02A/GpL16-k0 (antibody, human IgG1, kappa)
# heavy 1: not shown
# heavy 2: not shown
# light: B1 light
# notes: also called He Ab S324_02A
# B41: GpH7-A5/GpH7-B3 variant T335_06M/GpL16-k0 (antibody, human IgG1, kappa)
# heavy 1: not shown
# heavy 2: not shown
# light: B1 light
# notes: also called He Ab T335_06M
# B42: GpH7-A5/GpH7-B3 variant S337_19Q/GpL16-k0 (antibody, human IgG1, kappa)
# heavy 1: not shown
# heavy 2: not shown
# light: B1 light
# notes: also called He Ab S337_19Q
# B43: GpH7-A5/GpH7-B3 variant S337_06M/GpL16-k0 (antibody, human IgG1, kappa)
# heavy 1: not shown
# heavy 2: not shown
# light: B1 light
# notes: also called He Ab S337_06M
# B44: GpH7-A5/GpH7-B3 variant S324_11K/GpL16-k0 (antibody, human IgG1, kappa)
# heavy 1: not shown
# heavy 2: not shown
# light: B1 light
# notes: also called He Ab S324_11K
# Target: T1, FcγRIa (human, UniProt P12314 16-292)
# T1 construct: extracellular domain; Soluble extracellular domain expressed in FreeStyle293 cells, used as analyte in Biacore; also called FcgRI; 1a; not shown: His tag attached to the C terminus
# Assay: SPR (Biacore); He Ab vs HeCon Ab GpH7-A5/GpH7-B3/GpL16-k0
# Procedure: Analysis of interaction between objective antibody and the FcγR was carried out using Biacore T100 (GE Healthcare). HBS-EP+ (GE Healthcare) was used as the running buffer, and the measurement temperature was set to 25° C. Chips produced by immobilizing the antigen peptide by the amine coupling method to a Series S Sencor Chip CM5 (GE Healthcare), or alternatively, chips produced by allowing preliminarily biotinylated antigen peptides to interact with and immobilize onto a Series S Sensor Chip SA (certified) (GE Healthcare) were used. Antibodies of interest were captured onto an antigen peptide-immobilized chip, and allowed to interact to each FcγR diluted with running buffer. To regenerate and repeatedly use the chip, the antibodies captured on the chip were washed off by reacting 10 mM glycine-HCl, pH 1.5.
# T1 sequence (P12314 16-292): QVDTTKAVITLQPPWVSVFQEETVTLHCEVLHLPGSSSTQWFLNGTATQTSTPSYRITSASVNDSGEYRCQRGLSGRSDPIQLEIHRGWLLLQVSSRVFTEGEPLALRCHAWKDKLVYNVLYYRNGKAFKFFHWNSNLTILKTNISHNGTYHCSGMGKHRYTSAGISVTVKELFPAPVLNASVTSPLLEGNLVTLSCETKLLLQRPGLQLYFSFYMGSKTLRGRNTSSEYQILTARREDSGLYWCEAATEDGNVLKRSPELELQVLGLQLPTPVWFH
row,He/Con_1a,Binder
1,"114 relative binding, control = 100",B1
2,"113 relative binding, control = 100",B2
3,"108 relative binding, control = 100",B3
4,"109 relative binding, control = 100",B4
5,"107 relative binding, control = 100",B5
6,"106 relative binding, control = 100",B6
7,"107 relative binding, control = 100",B7
8,"107 relative binding, control = 100",B8
9,"109 relative binding, control = 100",B9
10,"108 relative binding, control = 100",B10
11,"103 relative binding, control = 100",B11
12,"107 relative binding, control = 100",B12
13,"104 relative binding, control = 100",B13
14,"115 relative binding, control = 100",B14
15,"104 relative binding, control = 100",B15
16,"114 relative binding, control = 100",B16
17,"105 relative binding, control = 100",B17
18,"107 relative binding, control = 100",B18
19,"113 relative binding, control = 100",B19
20,"106 relative binding, control = 100",B20
21,"106 relative binding, control = 100",B21
22,"106 relative binding, control = 100",B22

row,He/Con_1a,Binder
1,"121 relative binding, control = 100",B23
2,"109 relative binding, control = 100",B24
3,"111 relative binding, control = 100",B25
4,"116 relative binding, control = 100",B26
5,"114 relative binding, control = 100",B27
6,"105 relative binding, control = 100",B28
7,"112 relative binding, control = 100",B29
8,"106 relative binding, control = 100",B30
9,"109 relative binding, control = 100",B31
10,"104 relative binding, control = 100",B32
11,"106 relative binding, control = 100",B33
12,"107 relative binding, control = 100",B34
13,"108 relative binding, control = 100",B35
14,"102 relative binding, control = 100",B36
15,"105 relative binding, control = 100",B37
16,"105 relative binding, control = 100",B38
17,"109 relative binding, control = 100",B39
18,"103 relative binding, control = 100",B40
19,"107 relative binding, control = 100",B41
20,"105 relative binding, control = 100",B42
21,"107 relative binding, control = 100",B43
22,"102 relative binding, control = 100",B44
